# According to PMC7755780, “Tetrachloroethene respiration in Sulfurospirillum species is regulated by a two‐component system as unraveled by comparative genomics, transcriptomics, and regulator binding studies”:
# T1: RR2 (PceP), OmpR-family response regulator of TCS2 (Sulfurospirillum halorespirans (DSM 13726?)) (UniProt A0A1D7TJV3)
# T1 sequence: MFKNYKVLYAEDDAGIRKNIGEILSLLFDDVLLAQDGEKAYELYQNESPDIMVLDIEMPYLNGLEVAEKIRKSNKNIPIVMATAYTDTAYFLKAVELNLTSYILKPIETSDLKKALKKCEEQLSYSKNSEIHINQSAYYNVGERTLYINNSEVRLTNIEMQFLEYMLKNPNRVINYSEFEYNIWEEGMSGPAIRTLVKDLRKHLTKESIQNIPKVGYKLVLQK
# T2: RR2 (PceP), OmpR-family response regulator of TCS2 (Sulfurospirillum halorespirans, UniProt A0A1D7TJV3 1-223)
# T2 sequence: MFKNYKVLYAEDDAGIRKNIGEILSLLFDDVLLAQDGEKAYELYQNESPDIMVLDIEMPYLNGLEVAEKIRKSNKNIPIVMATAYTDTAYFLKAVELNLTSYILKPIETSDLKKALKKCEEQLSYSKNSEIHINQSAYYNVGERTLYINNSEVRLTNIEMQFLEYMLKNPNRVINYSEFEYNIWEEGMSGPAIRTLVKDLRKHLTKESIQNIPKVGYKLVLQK
# Columns and labels:
# [1] = target: T1, RR2 (PceP), OmpR-family response regulator of TCS2 (Sulfurospirillum halorespirans (DSM 13726?)); assay: EMSA; settings: EMSA: 10 mM HEPES pH 7.6, 2 mM MgCl2, 200 mM KCl, 0.1 mM EDTA, 5 mM DTT, 10% glycerol, 50 ug/ul Ficoll 70, 250 ng poly(dI/dC), 2.5 pmol DNA in 15 ul, room …
# [2] = target: T2, RR2 (PceP), OmpR-family response …; assay: EMSA; minimum binding fragment; 30 or 60 pmol RR2; EMSA: 10 mM HEPES pH 7.6, 2 mM MgCl2, 200 mM KCl, 0.1 mM EDTA, 5 mM DTT, 10% glycerol, 50 ug/ul Ficoll 70, 250 ng poly(dI/dC), 2.5 pmol DNA in 15 ul, room temperature 20 min; gel with 30% triethylene glycol in 1x TAE; settings: protein: recombinant; tags: Twin-Strep; chain copies: 2; label: 6-FAM; blunt
Molecule,binding [1],binding result [2]
TCTATCAGATATTTTGTTAAAAATTAACTTAAAAGAGTAAAAATTATCTATTTAATAGTTACCCTATATTTCACCTATAAGTTAC (double strand) [pTCS2/SHALO_1504 f9 (lacks repeat closest to SHALO_1504 TSS)],no binding,
CATATTCTATCCTTATTTTTAAAATATTTAATTATTATAAATGTAAGTATAGAAAATAATTATAGGTTGTTTGTAGATAATAATAATTTTTCTACTAATTCTTTAATCATTAAATAATATTCAGTAGTATTTCTATCTATCTCGATGCTCAAAAAAACACCATCAATTCTATCAATATCTACATCTATAACTTTTTCTTAA (double strand) [p1494 (ahpD-like gene promoter)],binds more weakly,
TTCACCTATAAGTTACCTATAAATATTCATAAAATTCAAGGTTCTCTCTTTATTGCACACAAAGTTACTACAAGTTTTATGTACT (double strand) [pTCS2/SHALO_1504 f2 (first CCTATA incomplete)],binds more weakly,
CTGCATAGAGTATTGTATAAGAAGCGAGCATGTTAAATCCCTGAAATTTTATGAATAATGTACGTATTATAAAAAAAGAAATATAGAACTTGTAGATAAAAAATATTTTCCTTCTATTTTAGTTATACAACGGTTGCATAAGTTTTAAATACAATTTTCATAATAAGTCAGATGTTAAATGGTTGTACTTGGGATCATTTAATTAAAGGTTACAAGAAGGTTTAAAATCATTATCATGATTGTATGGTAGATGATTTTTTAAGGAGTAAATATG (double strand) [prdhAB promoter],binds more weakly,
ATTGTCTGATATATTGACAAAATCTTTATAAAATCTCCAAAAATATAAAAAAAGAAAAGTATTTACTTATTACTTCGTAAATATTATTAACTTTCATTATTTTAAAATTAAAATCTATATCTTTCCTATAACAAAGCTATAACTTTTGTATATCATTCTTAAAATGTGAAATTAATTCATAAACACATTAAAAAATAAATAACTGTACTTGGGGTTATTTATAAAAGGTTACAAGAAGGTTTGAATACCACTGTGTAAGTTGTTACTCTTGGTATTTTTTAAGGAGGAAGTATG (double strand) [ppceAB promoter],binds,
CATGTGTGAACCTATCCTATAGTTTATAACTATGATTCTATCAGATATTTTGTTAAAAATTAACTTAAAAGAGTAAAAATTATCTATTTAATAGTTACCCTATATTTCACCTATAAGTTACCTATAAATATTCATAAAATTCAAGGTTCTCTCTTTATTGCACACAAAGTTACTACAAGTTTTATGTACT (double strand) [pTCS2/SHALO_1504 intergenic region (pTCS2)],binds,
CATTAAATTCTTAATTACATCATTATATCACAAAAAAGGCAAGGAATGATAAAAAAGTTTTATCATCTAAGTGAAGTATTAGACAATATCATATAATTAAATAGTTAAAGTAGTATAAATAAACCGTAAAATATGCAAATAACTGCATTTATAAGCTAATATTAATAAAATATACAA (double strand) [p1552 promoter (phage CI repressor superfamily gene)],no binding,
ppceAB minimum 70-bp fragment (dsDNA) DNA 1: ATTATTTTAAAATTAAAATCTATATCTTTCCTATAACAAAGCTATAACTTTTGTATATCATTCTTAAAAT DNA 2: ATTTTAAGAATGATATACAAAAGTTATAGCTTTGTTATAGGAAAGATATAGATTTTAATTTTAAAATAAT,,binds
